Data taken from patent US20170291948A1.

Assays:
[1] = target: NRP1 expressed on the surface of cancer cells (NRP1-overexpressing patient-derived cells; U87MG glioblastoma cell line) (human) (UniProt O14786); assay: cell-based or functional assay
[2] = target: human NRP1 protein (human) (UniProt O14786); assay: SPR, Biacore T100
human NRP1 protein (human), sequence (O14786 other isoform, or with tags, fused parts or gaps limits assumed): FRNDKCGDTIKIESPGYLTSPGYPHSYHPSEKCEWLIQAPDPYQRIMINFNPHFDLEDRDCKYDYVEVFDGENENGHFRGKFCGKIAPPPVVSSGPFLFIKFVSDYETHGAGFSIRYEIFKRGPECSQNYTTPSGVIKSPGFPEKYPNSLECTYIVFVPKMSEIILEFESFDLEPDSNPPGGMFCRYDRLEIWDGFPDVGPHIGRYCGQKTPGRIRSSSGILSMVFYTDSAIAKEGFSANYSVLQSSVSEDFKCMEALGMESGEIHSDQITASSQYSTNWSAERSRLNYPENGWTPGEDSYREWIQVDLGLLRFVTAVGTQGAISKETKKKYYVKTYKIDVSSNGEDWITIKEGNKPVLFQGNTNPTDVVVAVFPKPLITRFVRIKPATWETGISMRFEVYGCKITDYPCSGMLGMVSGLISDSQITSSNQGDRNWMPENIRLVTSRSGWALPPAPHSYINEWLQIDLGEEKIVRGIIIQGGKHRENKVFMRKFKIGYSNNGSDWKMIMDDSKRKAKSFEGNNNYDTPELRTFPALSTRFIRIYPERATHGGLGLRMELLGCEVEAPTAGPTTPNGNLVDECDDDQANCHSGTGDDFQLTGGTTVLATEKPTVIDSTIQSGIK

NRP1 expressed on the surface of cancer cells (NRP1-overexpressing patient-derived cells; U87MG glioblastoma cell line) (human), sequence (O14786 22-923): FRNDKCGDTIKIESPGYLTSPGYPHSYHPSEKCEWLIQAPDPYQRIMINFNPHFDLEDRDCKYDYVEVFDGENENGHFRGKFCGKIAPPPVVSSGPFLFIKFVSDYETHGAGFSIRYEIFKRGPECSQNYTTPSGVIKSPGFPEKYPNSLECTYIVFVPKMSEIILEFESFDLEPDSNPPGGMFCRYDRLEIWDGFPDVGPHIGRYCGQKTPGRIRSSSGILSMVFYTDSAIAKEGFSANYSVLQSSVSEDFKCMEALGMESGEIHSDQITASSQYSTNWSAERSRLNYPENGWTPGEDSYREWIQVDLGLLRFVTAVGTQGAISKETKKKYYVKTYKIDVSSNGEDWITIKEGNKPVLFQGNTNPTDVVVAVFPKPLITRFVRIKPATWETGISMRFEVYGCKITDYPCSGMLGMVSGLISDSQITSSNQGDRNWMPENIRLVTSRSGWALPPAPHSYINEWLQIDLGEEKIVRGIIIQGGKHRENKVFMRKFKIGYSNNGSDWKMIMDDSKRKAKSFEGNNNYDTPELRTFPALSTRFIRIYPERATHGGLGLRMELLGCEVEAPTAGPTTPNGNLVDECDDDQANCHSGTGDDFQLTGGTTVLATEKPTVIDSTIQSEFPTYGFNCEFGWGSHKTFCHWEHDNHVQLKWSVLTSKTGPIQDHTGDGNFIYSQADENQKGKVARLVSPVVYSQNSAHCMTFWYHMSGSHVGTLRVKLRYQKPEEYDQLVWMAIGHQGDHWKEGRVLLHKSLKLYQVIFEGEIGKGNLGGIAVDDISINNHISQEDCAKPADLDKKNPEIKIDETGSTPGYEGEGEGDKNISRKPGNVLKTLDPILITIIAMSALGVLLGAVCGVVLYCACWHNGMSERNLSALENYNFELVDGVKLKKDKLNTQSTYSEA

Binder	cell migration of U87MG cells (transwell), untreated control = 100% [1] [%]	Kd [2] [nM]
1A03 scFv antibody fragment (scFv, part only; not given: linker, domain order, His and HA tags, V domains shown, not shown: another chain or arm of the molecule; large carriers; small tags and cut ends) VH: EVQLLESGGGLVQPGGSLRLSCAASGFTFSSYYMSWVRQAPGKGLEWVSAISPGSSNKYYADSVQGRFTISRDNSKNTLYLQMNSLRAEDTAVYYCARRKKSFDYWGQGTLVTVSS VL: QSVLTQPPSASGTPGQRVTISCSGPSSNIGNNDVSWYQQLPGTAPKLLIYSDNNRPSGVPDRFSGSKSGTSASLAISGLRSEDEADYYCGAWVASLSAYVFGGGTKLTVL	41	89.4
3H10 scFv antibody fragment (scFv, part only; not given: linker, domain order, His and HA tags, V domains shown, not shown: another chain or arm of the molecule; large carriers; small tags and cut ends) VH: EVQLLESGGGLVQPGGSLRLSCAASGFTFSSYYMSWVRQAPGKGLEWVSAISPGSSNKYYADSVKGRFTISRDNSKNTLYLQMNSLRAEDTAVYYCARRKYMFDYWGQGTLVTVSS VL: QSVLTQPPSASGTPGQRVTISCTGSSSNIGNNDVYWYQQLPGTAPKLLIYSDSNRPSGVPDRFSGSKSGTSASLAISGLRSEDEADYYCASWDSSLSGYVFGGGTKLTVL	46	295
